Consider 13 molecules from publication PMC2945938, “The characterization of conserved binding motifs and potential target genes for M. tuberculosis MtrAB reveals a link between the two-component system and the drug resistance of M. smegmatis”.

T1: MtrA (Mycobacterium tuberculosis, UniProt P9WGM7 1-228)
T1 sequence: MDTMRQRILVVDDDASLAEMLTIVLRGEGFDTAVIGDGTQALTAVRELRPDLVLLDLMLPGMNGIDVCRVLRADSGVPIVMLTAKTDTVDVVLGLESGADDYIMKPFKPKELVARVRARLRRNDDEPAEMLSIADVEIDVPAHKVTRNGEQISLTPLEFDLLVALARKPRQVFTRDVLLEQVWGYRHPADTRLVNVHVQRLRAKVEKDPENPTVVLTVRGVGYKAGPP

T2: MtrA (Mycobacterium tuberculosis) (UniProt P9WGM7)
T2 sequence: T1 sequence

B1: S1 (dsDNA)
DNA 1: GCGGTGTAGTTATCACGCCG
DNA 2: CGGCGTGATAACTACACCGC
B2: S4 (dsDNA)
DNA 1: GCGAGCCGTTGCCGGTAGGTTGCGGCTGGT
DNA 2: ACCAGCCGCAACCTACCGGCAACGGCTCGC
B3: S3 (dsDNA)
DNA 1: TTTCAGCGTGGAAACGGCACTC
DNA 2: GAGTGCCGTTTCCACGCTGAAA
B4: S2 (dsDNA)
DNA 1: TCACGCCGTTTCAGCGTGGAAACGGCACTC
DNA 2: GAGTGCCGTTTCCACGCTGAAACGGCGTGA
B5: S5 (dsDNA)
DNA 1: AACACGAGGATCGCGAGCCGTTGCCGGTAGGTTGCGGCTGGT
DNA 2: ACCAGCCGCAACCTACCGGCAACGGCTCGCGATCCTCGTGTT
B6: Rv0574cp (dsDNA)
DNA 1: GCGGTCTTGAGGACCTTCGGCCCCACCCACGAGGCCGCCG
DNA 2: CGGCGGCCTCGTGGGTGGGGCCGAAGGTCCTCAAGACCGC
B7: Negative control (dsDNA)
DNA 1: CGGAGGTGGTTTTCGCTGCT
DNA 2: AGCAGCGAAAACCACCTCCG
B8: Rv3476cp (kgtP) (dsDNA)
DNA 1: CTGCATCCACGCCGGCGACACGCCGAGGGACG
DNA 2: CGTCCCTCGGCGTGTCGCCGGCGTGGATGCAG
B9: CglumepAp (dsDNA)
DNA 1: CCCCTAGCACGGCGTGTTTGG
DNA 2: CCAAACACGCCGTGCTAGGGG
B10: Rv0341p (iniB) (dsDNA)
DNA 1: CGCCGGTCACGCCGGCGAACA
DNA 2: TGTTCGCCGGCGTGACCGGCG
B11: CgluproPp (dsDNA)
DNA 1: GACTTTTCACCCCGAACCTTA
DNA 2: TAAGGTTCGGGGTGAAAAGTC

For the first data set, the target named is T1, MtrA. Briefly: EMSA; 100-600 nM MtrA. The settings on record: protein: recombinant; tags: 6His (pET28a) or GST (pGEX-4T-1); chain copies: 2; label: 32P. (In general: In EMSA bound probe runs differently from free probe, usually more slowly.)
B1: the binding result was “binds”. In the case of B2, the binding result is on record as “no binding”. Still for that read-out and setting: then B3, with “no binding”.

The same data set, now with this note: protein: recombinant; tags: 6His (pET28a) or GST (pGEX-4T-1); chain copies: 2; label: 32P (EMSA).
For B4, the binding result is reported as “binds”. On the same count and under the same terms, then B5, with “binds”.

In another data set the target is T1, MtrA. Briefly: EMSA. The settings on record: protein: recombinant; tags: 6His (pET28a) or GST (pGEX-4T-1); chain copies: 2; label: 32P.
With B6, the binding result was “binds”.

For the molecule B7, the binding result was “no binding”. Regarding B8, the binding result is listed as “binds”.

As to B9, the binding result is given as “binds”. B10: the binding result is “binds”. Still for that read-out and setting: then B11, with “binds”.

In the next data set the target is T2, MtrA (Mycobacterium tuberculosis). The experiment in a line: DNase I footprinting.
Conditions: not given
With “AATTCTACGGAAAACTGTTAGCTTCGGGCGGTGTAGTTATCACGCCGTTTCAGCGTGGAAACGGCACTCGACAATCAAGCGAGGATGGC (double strand) [S6 (84 bp)]”, the binding entry is recorded as “binds”.

Consider “AATTCTAGCGGCCCGGACAACTTGAACCGGGTGTTTTCAACACGAGGATCGCGAGCCGTTGCCGGTAGGTTGCGGCTGGT (double strand) [S7 (75 bp)]”, for which the binding entry was “binds”.
